Experimental data published in patent US20240116985A1, “STAPLED PEPTIDES AND METHODS THEREOF” (priority 2020, published 2024).
Starred links: 1 amine or outer side, 2 acyl side, 3 side chain; linkers in the order of their positions; H or OH if unused. Positions of bridges follow the written chain, without caps; N, C: chain ends. Non-standard residues stand in square brackets, D forms with d. Primed or numbered codes have the meaning given here. No end group written: not given here. *: point of attachment. PyrS2″ = (S)-3-amino-1-((pent-4-en-1-yloxy)carbonyl)pyrrolidine-3-carboxylic acid (stapling residue), C=CCCCOC(=O)N1CC[C@@](N[*:1])(C(=O)[*:2])C1; B5(16) = 2-amino-2-(pent-4-en-1-yl)hept-6-enoic acid = 2,2-bis(4-pentenyl)glycine (stitching residue), C=CCCCC(CCCC=C)(N[*:1])C(=O)[*:2]; B5(4) = 2,2-bis(4-pentenyl)glycine = 2-amino-2-(pent-4-en-1-yl)hept-6-enoic acid (stitching residue), C=CCCCC(CCCC=C)(N[*:1])C(=O)[*:2]; B5(5) = 2,2-bis(4-pentenyl)glycine, 2-amino-2-(pent-4-en-1-yl)hept-6-enoic acid (stitching residue), C=CCCCC(CCCC=C)(N[*:1])C(=O)[*:2]; PyrS2 = (S)-3-amino-1-((pent-4-en-1-yloxy)carbonyl)pyrrolidine-3-carboxylic acid, C=CCCCOC(=O)N1CC[C@@](N[*:1])(C(=O)[*:2])C1; SPip1 = 4-amino-1-((but-3-en-1-yloxy)carbonyl)piperidine-4-carboxylic acid, C=CCCOC(=O)N1CCC(N[*:1])(C(=O)[*:2])CC1; B5(12) = 2-amino-2-(pent-4-en-1-yl)hept-6-enoic acid (two olefin side chains), C=CCCCC(CCCC=C)(N[*:1])C(=O)[*:2]; B5(3) = 2,2-bis(4-pentenyl)glycine (stitching residue), C=CCCCC(CCCC=C)(N[*:1])C(=O)[*:2]; B5 = 2-amino-2-(pent-4-en-1-yl)hept-6-enoic acid, C=CCCCC(CCCC=C)(N[*:1])C(=O)[*:2]; NdiMeButC = N-terminal 4-(dimethylamino)butanoyl, CN(C)CCCC(=O)*; 5hexenyl″ = N-terminal hex-5-enoic acid cap, C=CCCCC(=O)*; Phe(3-CF3) = N[C@@H](Cc1cccc(C(F)(F)F)c1)C(=O)O; Phe(4-CF3) = N[C@@H](Cc1ccc(C(F)(F)F)cc1)C(=O)O; Phe(3-COOH) = N[C@@H](Cc1cccc(C(=O)O)c1)C(=O)O; Phe(2-Cl) = N[C@@H](Cc1ccccc1Cl)C(=O)O; Phe(2-F) = N[C@@H](Cc1ccccc1F)C(=O)O; Bta = N[C@@H](Cc1csc2ccccc12)C(=O)O; αAllylPro = C=CC[C@@]1(C(=O)O)CCCN1; hPhe = N[C@@H](CCc1ccccc1)C(=O)O; tBuAla = CC(C)(C)C[C@H](N)C(=O)O; 3Thi = N[C@@H](Cc1ccsc1)C(=O)O; Cha = N[C@@H](CC1CCCCC1)C(=O)O; αMeP = C[C@@]1(C(=O)O)CCCN1; Octanoyl = CCCCCCCC(=O)*

How the values were obtained:
[1] = biological target: Bcat-Halo (UniProt P35222); test: NanoBRET absolute IC50 in HEK293 cells; Bcat-Halo, competitor TCF4-Luc
[2] = biological target: Bcat-Halo (UniProt P35222); test: NanoBRET Abs IC50, Bcat-Halo/TCF4-Luc in HEK293 cells
[3] = biological target: full-length beta-Catenin (Uniprot ID P35222) (Homo sapiens (Human)) (UniProt P35222); test: fluorescence polarization competition; full-length beta-catenin, competitor 5FAM-TCF4 10-53
Target sequence in this assay (P35222 whole entry, one chain of several): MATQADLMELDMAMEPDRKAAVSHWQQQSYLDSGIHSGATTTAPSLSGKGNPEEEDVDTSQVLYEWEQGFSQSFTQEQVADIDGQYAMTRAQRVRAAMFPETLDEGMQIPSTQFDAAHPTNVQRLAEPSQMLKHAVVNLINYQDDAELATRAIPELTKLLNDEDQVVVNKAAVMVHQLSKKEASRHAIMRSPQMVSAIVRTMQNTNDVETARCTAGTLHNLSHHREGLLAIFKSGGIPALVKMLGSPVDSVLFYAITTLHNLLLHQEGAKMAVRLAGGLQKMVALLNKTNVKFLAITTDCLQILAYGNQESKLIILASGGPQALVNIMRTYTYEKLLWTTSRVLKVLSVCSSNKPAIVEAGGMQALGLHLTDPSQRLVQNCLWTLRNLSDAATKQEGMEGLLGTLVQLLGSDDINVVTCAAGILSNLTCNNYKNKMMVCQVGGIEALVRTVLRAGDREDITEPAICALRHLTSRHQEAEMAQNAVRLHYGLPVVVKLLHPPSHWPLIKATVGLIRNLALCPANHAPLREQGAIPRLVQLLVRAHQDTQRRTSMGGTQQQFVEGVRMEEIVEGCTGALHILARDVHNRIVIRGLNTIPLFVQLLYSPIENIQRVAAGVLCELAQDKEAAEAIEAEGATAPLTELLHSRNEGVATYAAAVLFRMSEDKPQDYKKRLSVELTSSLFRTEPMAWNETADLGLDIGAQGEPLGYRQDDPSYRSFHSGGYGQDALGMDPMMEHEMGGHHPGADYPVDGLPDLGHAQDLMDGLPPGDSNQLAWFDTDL

[4] = biological target: full-length beta-Catenin (Uniprot ID P35222) (Homo sapiens (Human)) (UniProt P35222); test: fluorescence polarization competition; displaces 5FAM-TCF4(10-53) from full-length beta-catenin
Target sequence in this assay (P35222 2-781 limits assumed): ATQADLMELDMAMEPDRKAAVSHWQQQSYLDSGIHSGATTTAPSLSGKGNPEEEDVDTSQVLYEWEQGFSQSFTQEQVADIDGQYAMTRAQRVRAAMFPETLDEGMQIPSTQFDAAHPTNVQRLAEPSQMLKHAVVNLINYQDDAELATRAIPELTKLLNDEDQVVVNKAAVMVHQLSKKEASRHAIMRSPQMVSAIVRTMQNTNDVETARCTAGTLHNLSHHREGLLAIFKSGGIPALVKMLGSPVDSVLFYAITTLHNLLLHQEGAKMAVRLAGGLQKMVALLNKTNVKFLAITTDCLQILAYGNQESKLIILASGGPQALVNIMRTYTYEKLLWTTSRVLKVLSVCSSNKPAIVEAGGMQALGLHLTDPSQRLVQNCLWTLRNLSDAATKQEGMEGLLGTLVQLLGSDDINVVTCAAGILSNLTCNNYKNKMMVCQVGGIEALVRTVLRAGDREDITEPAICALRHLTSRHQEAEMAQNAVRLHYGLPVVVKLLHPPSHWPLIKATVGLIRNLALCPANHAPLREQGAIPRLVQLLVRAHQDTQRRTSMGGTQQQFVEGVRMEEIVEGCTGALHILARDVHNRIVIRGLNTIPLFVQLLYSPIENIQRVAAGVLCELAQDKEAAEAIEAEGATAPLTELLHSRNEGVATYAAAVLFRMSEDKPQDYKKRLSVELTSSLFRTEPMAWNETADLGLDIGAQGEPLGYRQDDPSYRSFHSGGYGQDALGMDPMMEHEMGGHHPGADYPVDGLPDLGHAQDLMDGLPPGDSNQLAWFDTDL

[5] = biological target: full-length beta-Catenin (Uniprot ID P35222) (Homo sapiens (Human)) (UniProt P35222); test: fluorescence polarization competition; 10 nM full-length beta-catenin + 10 nM 5FAM-TCF4 10-53 as competitor probe
Target sequence in this assay (P35222 2-781 limits assumed): as above

[6] = biological target: full-length beta-Catenin (Uniprot ID P35222) (Homo sapiens (Human)) (UniProt P35222); test: fluorescence polarization competition; full-length beta-catenin with 5FAM-TCF4(10-53) probe, peptide titrated
Target sequence in this assay (P35222 whole entry, one chain of several): as the sequence (P35222 whole entry, one chain of several) above

[7] = biological target: full-length beta-Catenin (Uniprot ID P35222) (Homo sapiens (Human)) (UniProt P35222); test: fluorescence polarization competition; full-length beta-catenin, competitor 5FAM-TCF4(10-53) probe
Target sequence in this assay (P35222 whole entry, one chain of several): as above

[8] = biological target: full-length beta-Catenin (Uniprot ID P35222) (Homo sapiens (Human)) (UniProt P35222); test: FP competition; full-length beta-catenin, competitor 5FAM-TCF4(10-53)
Target sequence in this assay (P35222 whole entry, one chain of several): as above

[9] = biological target: full-length beta-Catenin (Uniprot ID P35222) (Homo sapiens (Human)) (UniProt P35222); test: fluorescence polarization competition; full-length beta-catenin with 5FAM-TCF4(10-53) probe as competitor
Target sequence in this assay (P35222 2-781 limits assumed): as the sequence (P35222 2-781 limits assumed) above

[10] = biological target: beta-catenin (Homo sapiens (Human)) (UniProt P35222); test: as above
[11] = biological target: full-length beta-Catenin (Uniprot ID P35222) (Homo sapiens (Human)) (UniProt P35222); test: fluorescence polarization competition; full-length beta-catenin, competitor 5FAM-TCF4 10-53 probe
Target sequence in this assay (P35222 2-781 limits assumed): as above

[12] = biological target: full-length beta-Catenin (Uniprot ID P35222) (Homo sapiens (Human)) (UniProt P35222); test: fluorescence polarization competition; full-length beta-catenin, 5FAM-TCF4 10-53 probe as competitor
Target sequence in this assay (P35222 whole entry, one chain of several): as the sequence (P35222 whole entry, one chain of several) above

[13] = biological target: full-length beta-Catenin (Uniprot ID P35222) (Homo sapiens (Human)) (UniProt P35222); test: fluorescence polarization competition against 5FAM TCF4 10-53 probe
Target sequence in this assay (P35222 whole entry, one chain of several): as above

Chain of Bcat-Halo (P35222 whole entry): as the sequence (P35222 whole entry, one chain of several) above
Chain of beta-catenin (Homo sapiens (Human)) (P35222 whole entry): as the sequence (P35222 whole entry, one chain of several) above

B1: I-1021 (peptide)
peptide: Ac-[αAllylPro]D[tBuAla][B5(5)]DDAAFT[PyrS2″][Phe(2-F)][Bta]Q-NH2
modifications: staple 1-4, 4-11
Work on B1 yielded an IC50 [1] of 11500 nM, an IC50 [2] of 11500 nM and an IC50 [3] of 5 nM. For the same binder, the EC50 [4] was 5 nM.

B2: I-1022 (peptide)
peptide: Ac-[αAllylPro]D[tBuAla][B5(5)]DNAAFT[PyrS2″][Phe(2-F)][Bta]Q-NH2
modifications: staple 1-4, 4-11
B2 was tested, and the IC50 [1] was 13700 nM, the IC50 [3] was 33 nM and the EC50 [4] was 33 nM.

B3: I-1032 (peptide)
peptide: Ac-[αAllylPro]D[tBuAla][B5(5)]DDAAFS[PyrS2″][Phe(2-Cl)][Bta][dT]-NH2
modifications: staple 1-4, 4-11
For B3, the IC50 [1] was 10400 nM, the EC50 [5] was 15 nM and the IC50 [3] was 15 nM.

B4: I-1033 (peptide)
peptide: Ac-[αAllylPro]D[tBuAla][B5(5)]DDAAFT[PyrS2″][Phe(2-Cl)][Bta][dT]-NH2
modifications: staple 1-4, 4-11
B4 showed an IC50 [1] of 8600 nM, an EC50 [5] of 10 nM and an IC50 [3] of 10 nM.

B5: I-1036 (peptide)
peptide: Ac-[αAllylPro]D[tBuAla][B5(5)]DEAAFS[PyrS2″][Phe(2-Cl)][Bta][dT]-NH2
modifications: staple 1-4, 4-11
With B5 the IC50 [1] was 16600 nM, the EC50 [5] was 29 nM and the IC50 [3] was 29 nM.

B6: I-1037 (peptide)
peptide: Ac-[αAllylPro]D[tBuAla][B5(5)]DEAAFT[PyrS2″][Phe(2-Cl)][Bta][dT]-NH2
modifications: staple 1-4, 4-11
With B6 the IC50 [1] was 4400 nM, the EC50 [5] was 30 nM and the IC50 [3] was 30 nM.

B7: I-1042 (peptide)
peptide: Ac-[αAllylPro]D[Cha][B5(5)]DDAAFT[PyrS2″][Phe(2-Cl)][Bta]Q-NH2
modifications: staple 1-4, 4-11
For B7, the EC50 [5] was 5 nM and the IC50 [6] was 5 nM.

B8: I-1063 (peptide)
peptide: Ac-[αAllylPro]D[tBuAla][B5(3)]DEAAFL[PyrS2][Phe(2-Cl)][Bta]Q-NH2
modifications: staple 1-4, 4-11
For B8, the EC50 [7] was 471 nM and the IC50 [6] was 471 nM.

B9: I-1064 (peptide)
peptide: Ac-[αAllylPro]D[tBuAla][B5(3)]DDAAFL[PyrS2][Phe(2-Cl)][Bta]S-NH2
modifications: staple 1-4, 4-11; not fully specified; printed as Ac-PL3-Asp-Npg-B5-Asp-Asp-Ala-Ala-Phe-Leu-PyrS2-2C1F-BztA-Ser-NH2
With B9 the EC50 [7] was 414 nM and the IC50 [6] was 414 nM.

B10: I-1065 (peptide)
peptide: Ac-[αAllylPro]D[tBuAla][B5(3)]DDAAFL[PyrS2″][Phe(2-Cl)][Bta]S-NH2
modifications: staple 1-4, 4-11; not fully specified; printed as Ac-PL3-Asp-Npg-B5-Asp-Asp-Ala-Ala-Phe-Leu-PyrS2-2C1F-BztA-Ser-NH2
With B10 the EC50 [7] was 520 nM and the IC50 [6] was 520 nM.

B11: I-1066 (peptide)
peptide: Ac-[αAllylPro]D[tBuAla][B5(3)]DEAAFL[PyrS2″][Phe(2-Cl)][Bta]S-NH2
modifications: staple 1-4, 4-11; not fully specified; printed as Ac-PL3-Asp-Npg-B5-Asp-Glu-Ala-Ala-Phe-Leu-PyrS2-2C1F-BztA-Ser-NH2
Binder B11 has an EC50 [7] of 789 nM and an IC50 [6] of 789 nM.

B12: I-1067 (peptide)
peptide: Ac-[αAllylPro]D[tBuAla][B5(3)]DEAAFL[PyrS2″][Phe(2-Cl)][Bta]S-NH2
modifications: staple 1-4, 4-11; not fully specified; printed as Ac-PL3-Asp-Npg-B5-Asp-Glu-Ala-Ala-Phe-Leu-PyrS2-2C1F-BztA-Ser-NH2
For B12, the EC50 [7] was 517 nM and the IC50 [6] was 517 nM.

B13: I-1068 (peptide)
peptide: Ac-[αAllylPro]D[tBuAla][B5(3)]DDAAFL[PyrS2″][Phe(2-Cl)][Bta]T-NH2
modifications: staple 1-4, 4-11; not fully specified; printed as Ac-PL3-Asp-Npg-B5-Asp-Asp-Ala-Ala-Phe-Leu-PyrS2-2C1F-BztA-Thr-NH2
With B13 the EC50 [7] was 950 nM and the IC50 [6] was 950 nM.

B14: I-1069 (peptide)
peptide: Ac-[αAllylPro]D[tBuAla][B5(3)]DDAAFL[PyrS2″][Phe(2-Cl)][Bta]T-NH2
modifications: staple 1-4, 4-11; also: staple stereoisomer: later eluting HPLC peak
For B14, the EC50 [7] was 920 nM and the IC50 [6] was 920 nM.

B15: I-1070 (peptide)
peptide: Ac-[αAllylPro]D[tBuAla][B5(3)]DEAAFL[PyrS2″][Phe(2-Cl)][Bta]T-NH2
modifications: staple 1-4, 4-11; not fully specified; printed as Ac-PL3-Asp-Npg-B5-Asp-Glu-Ala-Ala-Phe-Leu-PyrS2-2C1F-BztA-Thr-NH2
With B15 the EC50 [7] was 1020 nM and the IC50 [6] was 1020 nM.

B16: I-1351 (peptide)
peptide: [αAllylPro]D[tBuAla][B5(4)]DDAAFF[PyrS2″][hPhe][Bta]Q-NH2
modifications: staple 1-4, 4-11
B16 was tested, and the EC50 [8] was 258 nM and the IC50 [9] was 258 nM.

B17: I-1354 (peptide)
peptide: NdiMeButC-[αAllylPro]D[tBuAla][B5(4)]DDAAFS[PyrS2″]F[Bta]S-NH2
modifications: staple 1-4, 4-11
With B17 the EC50 [8] was 48 nM and the IC50 [9] was 48 nM.

B18: I-1355 (peptide)
peptide: Octanoyl-[αAllylPro]D[tBuAla][B5(4)]DDAAFS[PyrS2″]F[Bta]S-NH2
modifications: staple 1-4, 4-11
B18 showed an EC50 [8] of 213 nM and an IC50 [9] of 213 nM.

B19: I-1364 (peptide)
peptide: Ac-[αAllylPro]D[tBuAla][B5(4)]DDAAF[Phe(3-CF3)][PyrS2][3Thi][Bta]Q-NH2
modifications: staple 1-4, 4-11
B19 gave an EC50 [8] of 9 nM and an IC50 [9] of 9 nM.

B20: I-1365 (peptide)
peptide: Ac-[αAllylPro]D[tBuAla][B5(4)]DDAAF[Phe(4-CF3)][PyrS2][3Thi][Bta]Q-NH2
modifications: staple 1-4, 4-11
For B20, the EC50 [8] was 9 nM and the IC50 [9] was 9 nM.

B21: I-1413 (peptide)
peptide: Ac-[αAllylPro]DN[B5(12)]DDAAFL[PyrS2″][3Thi][Bta]L-NH2
modifications: staple 1-4, 4-11
Binder B21 has an EC50 [10] of 74 nM and an IC50 [11] of 74 nM.

B22: I-1437 (peptide)
peptide: Ac-[αAllylPro]D[tBuAla][B5(5)]DEAAFL[PyrS2″][3Thi][Bta]Q-NH2
modifications: staple 1-4, 4-11
B22 showed an EC50 [10] of 7 nM, an IC50 [1] of 7100 nM and an IC50 [7] of 7 nM.

B23: I-1440 (peptide)
peptide: Ac-[αAllylPro]D[tBuAla][B5(5)]DQAAFL[PyrS2″][3Thi][Bta]Q-NH2
modifications: staple 1-4, 4-11
Work on B23 yielded an EC50 [10] of 26 nM, an IC50 [1] of 20700 nM and an IC50 [7] of 26 nM.

B24: I-1443 (peptide)
peptide: Ac-[αAllylPro]D[tBuAla][B5(4)]DSAAFL[PyrS2″][3Thi][Bta]Q-NH2
modifications: staple 1-4, 4-11
B24 gave an EC50 [10] of 24 nM, an IC50 [1] of 9500 nM and an IC50 [7] of 24 nM.

B25: I-2591 (peptide)
peptide: Ac-[αAllylPro]D[tBuAla][B5]D[Phe(3-COOH)]QAFL[SPip1][3Thi][Bta]A-NH2
modifications: staple 1-4, 4-11; not fully specified; printed as Ac-PL3-Asp-Npg-B5-Asp-3COOHF-Gln-Ala-Phe-Leu-SPip1-3Thi-BztA-Ala-NH2
B25 showed an IC50 [12] of 602 nM.

B26: I-2598 (peptide)
peptide: {5hexenyl″}-[αMeP]D[B5(3)]ADDAAF[PyrS2]L[3Thi][Bta]Q-NH2
modifications: staple 3-10; staple (positions not given here); not fully specified (bridges); printed as 5hexenyl-MePro-Asp-B5-Ala-Asp-Asp-Ala-Ala-Phe-PyrS2-Leu-3Thi-BztA-Gln-NH2
Binder B26 has an IC50 [13] of 1350 nM.
